Test results published in PMC5887453 (Nucleic Acids Research, 2018).
Positions count from the first letter of the chain named.

Assays:
Test in all cases: native gel or EMSA
PhoEF-2 K225S = molecular target: T1, PhoEF-2 K225S (Pyrococcus horikoshii, UniProt O59521 1-732, K225S)
T1 sequence (looked up): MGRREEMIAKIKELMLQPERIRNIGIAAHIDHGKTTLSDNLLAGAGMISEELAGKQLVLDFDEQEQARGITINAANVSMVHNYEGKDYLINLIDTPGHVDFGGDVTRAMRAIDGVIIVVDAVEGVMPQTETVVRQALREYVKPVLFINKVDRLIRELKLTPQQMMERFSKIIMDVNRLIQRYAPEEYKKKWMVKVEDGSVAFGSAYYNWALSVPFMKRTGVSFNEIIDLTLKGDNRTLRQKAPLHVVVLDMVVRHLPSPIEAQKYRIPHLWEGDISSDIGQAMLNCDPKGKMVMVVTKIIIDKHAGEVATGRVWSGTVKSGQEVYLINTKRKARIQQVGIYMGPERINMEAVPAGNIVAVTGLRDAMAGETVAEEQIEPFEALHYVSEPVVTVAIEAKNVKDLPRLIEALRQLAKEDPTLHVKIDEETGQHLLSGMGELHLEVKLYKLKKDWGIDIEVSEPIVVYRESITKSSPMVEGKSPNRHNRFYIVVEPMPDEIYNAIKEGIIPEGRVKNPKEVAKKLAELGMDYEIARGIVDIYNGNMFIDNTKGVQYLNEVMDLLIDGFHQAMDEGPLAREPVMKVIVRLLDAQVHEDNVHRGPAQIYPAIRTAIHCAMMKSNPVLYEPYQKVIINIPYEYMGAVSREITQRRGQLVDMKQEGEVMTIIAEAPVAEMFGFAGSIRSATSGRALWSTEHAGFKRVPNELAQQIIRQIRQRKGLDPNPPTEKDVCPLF

PhoEF-2 N227S = molecular target: T2, PhoEF-2 N227S (Pyrococcus horikoshii, UniProt O59521 1-732, N227S)
T2 sequence (looked up): T1 sequence (looked up) with S222K, N224S

PhoEF-2 L214S/V216S = molecular target: T3, PhoEF-2 L214S/V216S (Pyrococcus horikoshii, UniProt O59521 1-732, L214S | V216S)
T3 sequence (looked up): T1 sequence (looked up) with L211S, V213S, S222K

Measured: binding result

B1: Pyrococcus horikoshii ribosomal stalk protein P1 (natural protein, UniProt O57705 1-108, looked up)
chain: MEYVYAALLLHSVGKEINEENLKAVLQAAGVEPEEARIKALVAALEGVNIDEVIEKAAMPVAVAAAPAAAPAEAGGEEKKEEEKKEEEEKEEEVSEEEALAGLSALFG
modifications: in the SPR only: biotin on amino groups via a PEG linker (EZ-Link NHS-PEG4-Biotin)
binds: all assays above
